# Data from publication PMC6358683.
# Assays:
# [1] = molecular target: HA of A/New Caledonia/20/1999 (influenza A virus A/New Caledonia/20/1999) (UniProt Q6WG00)
# [2] = molecular target: HA of A/mallard/Alberta/35/1976 (influenza A virus A/mallard/Alberta/35/1976); assay: BLI
substance,measurement,setting,value
C05 WT (antibody),"HAI, antibody concentration at the endpoint titer; virus A/New Caledonia/20/1999",[1],0.2 µg/mL
same,Kd,[2],511 nM
same,koff,[2],0.0021 s⁻¹
same,kon,[2],4100 M⁻¹ s⁻¹
